Residue numbers refer to the chain shown, from its start.
What was measured:
caspase-3 [1] = assay: CBS variants transiently transfected in HEK293 cells, kinetic luminescence response to TRAIL treatment; format: cell-based; settings: for RESPONSE, IMPROVEMENT OVER TL-CP358-DEVD:DD: ratio of INDUCED to BASAL; for BASAL, IMPROVEMENT OVER TL-CP358-DEVD:DD: time (0); for greater RESPONSE compared with TL-CP358-DEVD:DD: live cells (FIGS. 2, 3)
Text: The Caspase-3 BioSensor (CBS) is a thermostable Photuris pennsylvanica luciferase (TL), circularly-permuted (CP) at amino acid 358, with a caspase-3 recognition site, i.e., one containing the caspase-3 recognition site comprising amino acids DEVD, at the junction between the TL fragments. The specific CBS that was used as the starting template is termed TL-CP358-DEVD:DD. The amino acid sequence of this CBS can be represented as: M/TL residues 358-544/SDEVDGSL/TL residues 4-354/V (SEQ ID NO:6). The amino acid positions in the CP TL correlate to those of the non-CP TL sequence (provided in the attached appendix). Upon treatment with caspase-3, CBS is cleaved at the recognition site allowing the two TL fragments to form a more favorable, higher activity, conformation.
The utility of CBS is the differential activity before and after cleavage by caspase-3. The basal activity of CBS is defined as the activity at assay time (O), before caspase-3 has had time to cleave at the recognition site. The induced activity is defined as the activity at some later time (t) after CBS has been cleaved by caspase-3. The response or fold increase in activity, is the ratio of induced to basal activity. Substitutions in TL-CP358-DEVD:DD were generated to develop CBS variants with enhanced responsivity to induction using the error-prone, mutagenic PCR-based system GeneMorph II (Stratagene; Daugherty, PNAS USA 97(5):2029 (2000)), according to manufacturer's instructions.
The resulting library was expressed in E. coli and screened for luciferase activity with and without pre-treatment with recombinant caspase-3 (data not shown). CBS variants having the best signal and response characteristics were then evaluated in HEK293 cells by kinetic assay measuring the response to TNF-α-related apoptosis inducing ligand (TRAIL) treatment (Wiley, S. R. et al., Immunity 3:673 (1995); Niles, A. L. et al., Meth. Mol. Biol. 414:137 (2008)). TRAIL induces apoptosis via activation of the death receptor to form active caspase-8, which in turn activates procaspase 3 to produce caspase-3. The appearance of active caspase-3 should be accompanied by an increase in luminescence as the CBS variants are cleaved and activated. Briefly, HEK293 cells, plated at 15,000 cells/well in a 96-well plate, were transiently transfected using TransIT-LTI (Mires Bio) with plasmid DNAs encoding various CBS variants with amino acid substitutions in TL-CP358-DEVD:DD. The same plasmids also carried a gene for constitutive expression of Renilla luciferase to act as a transfection control. Cells were pretreated with 2 mM luciferin for 2 hrs at 37° C. Cells were treated with 1 μg/mL TRAIL and assayed for 10 hrs at 37° C. Luminescence was monitored continuously over time (Luminometer: Varioskan Flash (Thermo) 1 sec integration time). Cells in replicate wells were lysed, at the time of TRAIL addition, i.e., time (0) and Renilla luciferase activity was measured. All biosensor data was then normalized for transfection efficiency using Renilla luciferase luminescence (Dual-GloAssay System; Promega Corporation).
Table 1 lists the variants of TL-CP358-DEVD:DD, identified by clone name, showing improved response to TRAIL treatment. Improvements listed in Table 1 are normalized to the parental TL-CP358-DEVD:DD CBS. “BASAL” represents the normalized biosensor luminescence at TRAIL addition, i.e., time (0), “INDUCED” represents the normalized biosensor luminescence at roughly 10 hrs after TRAIL addition, and “RESPONSE” represents the fold-induction, i.e., the ratio of INDUCED to BASAL activity.
Additional CBS variants were generated using the oligo-based site-directed mutagenesis kit Quik Change (Stratagene; Kunkel, PNAS USA 82(2):488 (1985)), according to the manufacturer's instructions. […]

caspase-3 [2] = assay: CBS expressed in E. coli, HisLink purification fractions, caspase-3 cleavage reaction; format: biochemical
Procedure: The CBS variant 1A5 was cloned into a bacterial expression vector (pFNA:HQ(5×):CBS:HT(7); SEQ ID NOs:73 and 74) containing HaloTag® (C-terminal to the CBS) and a 5×HQ tag (N-terminal to CBS). The fusion protein was expressed in E. coli as follows: E. coli (KRX) was transformed with the vector. A starter culture (50 mL, LB Broth) was inoculated from a single colony and grown for 17-22 hrs at 37° C. with shaking (275 rpm). The starter culture was diluted (1:50) into induction media (500 mL, LB Broth with 0.05% glucose and 0.02% rhamnose) and growth was continued for another 17-22 hrs at 25° C. with shaking (275 rpm). The culture was divided into two 250 mL aliquots, and cells were collected by centrifugation (5,000×g for 20 min at 4° C.). One cell pellet was re-suspended in Lysis Buffer (25 mL, 50 mM HEPES (pH 7.5), 0.2× FastBreak, 2 mM DTT, 0.05% CHAPS, 50 mM Arginine, 50 mM Glutamic acid, 0.2 mg/mL Lysozyme, 10 U/mL RQ1 DNase, and Protease Inhibitors (Beckton/Dickenson Cat. No. 544779)) and incubated on ice for 30 min. After incubation, the sample was sonicated (Misonix Sonicator-3000, 4 mM total, 5 sec on, 5 sec rest, Power Setting 5). The crude lysate was clarified by centrifugation (20,000×g for 20 min at 4° C.), and the supernatant (cleared lysate) was used as the CBS source. For the caspase-3 cleavage reaction, 20 μl of the cleared lysate was mixed with 20 μL E. coli lysate expressing caspase-3 (Example XII) and incubated at room temperature for 30 min. 60 μL HEPES pH 7.5 was added, followed by the addition of 100 μL Bright-Glo Assay Reagent. Luminescence was detected as previously described above (FIG. 20).
Briefly, 25 mL of cleared lysate was made 0.5 M in NaCl (final concentration) and applied to 2 mL of settled HisLink resin that had been equilibrated with Binding Buffer (100 mM HEPES (pH7.5), 10 mM Imidazole, 500 mM NaCl). The resin was washed with 12 mL of Binding Buffer followed by washing with Elution Buffer (100 mM HEPES (pH 7.5), 1000 mM Imidazole). 1.75 mL fractions were collected.
For SDS-PAGE gel analysis, samples were labeled with CA-TAM and analyzed as described previously (FIG. 21A). For caspase-3 cleavage reaction, 20 μl of each sample was mixed with 20 μL E. coli lysate expressing Caspase-3 (Example XII) and incubated at room temperature for 30 min. 60 μL HEPES pH 7.5 was added, followed by the addition of 100 μL Bright-Glo Assay Reagent. Luminescence was detected as previously described above (Table 10 and FIG. 21B).

caspase-3 [3] = assay: Purified HQ:CBS:HT from E. coli immobilized on solid support, activation by Caspase-3; format: biochemical
[4] = Table 2 combination variants, roughly 10 hrs after TRAIL, HEK293
[5] = Table 2 combination variants, HEK293 as in Example I
[6] = HisLink purification sample HSS
[7] = HisLink purification sample NSM
[8] = HisLink purification sample WASH

B1: 01:A-05: CBS variant of TL-CP358-DEVD:DD, 507TI (SEQ ID NOs:7 and 8) (protein)
chain: MPGSTGKIVPLHAVKVVDPTTGKILGPNEPGELYFKGPMIMKGYYNNEEATKAIIDNDGWLRSGDIAYYDNDGHFYIVDRLKSLIKYKGYQVAPAEIEGILLQHPYIVDAGVTGIPDEAAGELPAAGVVVQTGKYLNEQIVQDYVASQVSIAKWLRGGVKFLDEIPKGSTGKIDRKVLRQMLEKHTNGSDEVDGSLKNILYGPEPFYPLEDGTAGEQMFDALSRYAAIPGCIALTNAHTKENVLYEEFLKLSCRLAESFKKYGLKQNDTIAVCSENSLQFFLPVIASLYLGIIVAPVNDKYIERELIHSLGIVKPRIVFCSKNTFQKVLNVKSKLKSIETIIILDLNEDLGGYQCLNNFISQNSDSNLDVKKFKPYSFNRDDQVASIMFSSGTTGLPKGVMLTHKNIVARFSIAKDPTFGNAINPTSAILTVIPFHHGFGMMTTLGYFTCGFRVVLMHTFEEKLFLQSLQDYKVESTLLVPTLMAFLAKSALVEKYDLSHLKEIASGGAPLSKEIGEMVKKRFKLNFVRQGYGLTETTSAVLITPKGV
caspase-3 [1]; Table 1, fold-induction, normalized to parental
  RESPONSE, IMPROVEMENT OVER TL-CP358-DEVD:DD: 3.6 fold
caspase-3 [1]; Table 1, normalized biosensor luminescence at TRAIL addition, HEK293, normalized to parental
  BASAL, IMPROVEMENT OVER TL-CP358-DEVD:DD: 0.2 fold
caspase-3 [1]; Table 1, normalized luminescence roughly 10 hrs after 1 μg/mL TRAIL, HEK293, normalized to parental
  INDUCED, IMPROVEMENT OVER TL-CP358-DEVD:DD: 0.6 fold
caspase-3 [1]; after 2 hrs TRAIL treatment
  greater RESPONSE compared with TL-CP358-DEVD:DD: 2 times
caspase-3 [1]; after 10 hrs TRAIL treatment
  greater RESPONSE compared with TL-CP358-DEVD:DD: about 4.8 times

B2: FC7: 49: CBS variant, 193SP 503SG 507TI (SEQ ID NOs:13 and 14) (protein)
chain: B1 chain with S147G, S386P
caspase-3 [1]; Table 2 combination variants
  RESPONSE, IMPROVEMENT OVER TL-CP358-DEVD:DD: 5.115 fold
caspase-3 [1]; [4]
  INDUCED, IMPROVEMENT OVER TL-CP358-DEVD:DD: 0.852 fold
caspase-3 [1]; [5]
  BASAL, IMPROVEMENT OVER TL-CP358-DEVD:DD: 0.167 fold
caspase-3 [1]; after 2 hrs TRAIL treatment
  greater RESPONSE compared with TL-CP358-DEVD:DD: about 2 times

B3: FC7: 24: CBS variant, 193SP 471IT 503SG 507TI (SEQ ID NOs:9 and 10) (protein)
chain: B1 chain with I115T, S147G, S386P
caspase-3 [1]; Table 2 combination variants
  RESPONSE, IMPROVEMENT OVER TL-CP358-DEVD:DD: 5.480 fold
caspase-3 [1]; [4]
  INDUCED, IMPROVEMENT OVER TL-CP358-DEVD:DD: 0.191 fold
caspase-3 [1]; [5]
  BASAL, IMPROVEMENT OVER TL-CP358-DEVD:DD: 0.035 fold
caspase-3 [1]; after 2 hrs TRAIL treatment
  greater RESPONSE compared with TL-CP358-DEVD:DD: about 2 times

B4: FC7: 43: CBS variant, 471IT 503SG 507TI (SEQ ID NOs:11 and 12) (protein)
chain: B1 chain with I115T, S147G
caspase-3 [1]; Table 2 combination variants
  RESPONSE, IMPROVEMENT OVER TL-CP358-DEVD:DD: 6.735 fold
caspase-3 [1]; [4]
  INDUCED, IMPROVEMENT OVER TL-CP358-DEVD:DD: 0.189 fold
caspase-3 [1]; [5]
  BASAL, IMPROVEMENT OVER TL-CP358-DEVD:DD: 0.028 fold
caspase-3 [1]; after 10 hrs TRAIL treatment
  greater RESPONSE compared with TL-CP358-DEVD:DD: about 2.2 times

B5: HQ:CBS:HT: 5×HQ tag:CBS (variant 1A5):HaloTag fusion protein expressed in E. coli (SEQ ID NOs:73 and 74) (protein)
chain: MKHQHQHQAIAMPGSTGKIVPLHAVKVVDPTTGKILGPNEPGELYFKGPMIMKGYYNNEEATKAIIDNDGWLRSGDIAYYDNDGHFYIVDRLKSLIKYKGYQVAPAEIEGILLQHPYIVDAGVTGIPDEAAGELPAAGVVVQTGKYLNEQIVQDYVASQVSIAKWLRGGVKFLDEIPKGSTGKIDRKVLRQMLEKHTNGSDEVDGSLKNILYGPEPFYPLEDGTAGEQMFDALSRYAAIPGCIALTNAHTKENVLYEEFLKLSCRLAESFKKYGLKQNDTIAVCSENSLQFFLPVIASLYLGIIVAPVNDKYIERELIHSLGIVKPRIVFCSKNTFQKVLNVKSKLKSIETIIILDLNEDLGGYQCLNNFISQNSDSNLDVKKFKPYSFNRDDQVASIMFSSGTTGLPKGVMLTHKNIVARFSIAKDPTFGNAINPTSAILTVIPFHHGFGMMTTLGYFTCGFRVVLMHTFEEKLFLQSLQDYKVESTLLVPTLMAFLAKSALVEKYDLSHLKEIASGGAPLSKEIGEMVKKRFKLNFVRQGYGLTETTSAVLITPKGVSLEPTTEDLYFQSDNDGSEIGTGFPFDPHYVEVLGERMHYVDVGPRDGTPVLFLHGNPTSSYVWRNIIPHVAPTHRCIAPDLIGMGKSDKPDLGYFFDDHVRFMDAFIEALGLEEVVLVIHDWGSALGFHWAKRNPERVKGIAFMEFIRPIPTWDEWPEFARETFQAFRTTDVGRKLIIDQNVFIEGTLPMGVVRPLTEVEMDHYREPFLNPVDREPLWRFPNELPIAGEPANIVALVEEYMDWLHQSPVPKLLFWGTPGVLIPPAEAARLAKSLPNCKAVDIGPGLNLLQEDNPDLIGSEIARWLSTLEISG
caspase-3 [2]; HisLink elution fraction E1
  BASAL luminescence: 4,221
  INDUCED luminescence: 2,951,899
  RESPONSE: 699
caspase-3 [2]; HisLink elution fraction E2
  BASAL luminescence: 193,268
  INDUCED luminescence: 40,913,496
  RESPONSE: 212
caspase-3 [2]; HisLink elution fraction E3
  BASAL luminescence: 18,454
  INDUCED luminescence: 3,287,059
  RESPONSE: 178
caspase-3 [2]; HisLink elution fraction E4
  BASAL luminescence: 1,130
  INDUCED luminescence: 215,580
  RESPONSE: 191
caspase-3 [2]; HisLink elution fraction E5
  BASAL luminescence: 270
  INDUCED luminescence: 48,068
  RESPONSE: 178
caspase-3 [2]; [6]
  BASAL luminescence: 301,304
  INDUCED luminescence: 12,875,742
  RESPONSE: 43
caspase-3 [2]; [7]
  BASAL luminescence: 176,259
  INDUCED luminescence: 5,822,003
  RESPONSE: 33
caspase-3 [2]; [8]
  BASAL luminescence: 7,734
  INDUCED luminescence: 3,706,541
  RESPONSE: 479
caspase-3 [3]; column HaloLink-Plate
  BASAL luminescence: 6,880
  INDUCED luminescence: 661,597
  RESPONSE: 96
caspase-3 [3]; column HisLink
  BASAL luminescence: 193,268
  INDUCED luminescence: 40,913,496
  RESPONSE: 212

Source: patent US9290794B2, “Mutant protease biosensors with enhanced detection characteristics” (PROMEGA CORPORATION, priority 2010, dated 2016)
